Assay results from PMC4509546, “Structural Characterization of the Chaetomium thermophilum TREX-2 Complex and its Interaction with the mRNA Nuclear Export Factor Mex67:Mtr2” (Structure(London, England:1993), 2015).

Tests used:
[1] = target: GST-tagged ctMlp1^(1797-1960) (Chaetomium thermophilum); assay: SPR; GST-tagged ligands captured by anti-GST antibody on CM5 chip; ctMex67:Mtr2 injected at 0.11-10 μM for 120 s, dissociation 600 s; BIAcore T200, 30 μl/min, 25°C, 20 mM Na-HEPES pH 7.5, 400 mM NaCl, 2 mM MgCl2, 5% glycerol, 0.01% NP-40; double exponential fits
[2] = target: GST-tagged ctNup145^(213-567) (Chaetomium thermophilum); assay: as above
[3] = target: GST-tagged ctSac3N^(1-210) (Chaetomium thermophilum) (UniProt G0SGL4); assay: as above
[4] = target: T1, C. thermophilum TREX-2 CID region complex (ctSac3^CID:ctSus1:ctCdc31) (Chaetomium thermophilum, UniProt G0SGL4 1086-1170; G0S6Y1 1-168; G0SAR7 1-177); assay: SPR; ctSac3 CID region with the Sac3N FG region; who was immobilised is not told in the text (Figure S2); general SPR conditions: BIAcore T200, 25°C, 20 mM Na-HEPES pH 7.5, 400 mM NaCl, 2 mM MgCl2, 5% glycerol, 0.01% NP-40; details: both partners purified
T1 construct: as m1; Sus1, Chaetomium thermophilum, locus CTHT_0027270; as m2; as m3; Used here for the SPR of 'the ctSac3 CID region' with Sac3N; also called ctSac3 CID region; CID region of TREX-2; source: E. coli, co-expressed, purified (GSH, TEV cleavage, size-exclusion chromatography); copies: 1 + 1 + 1
T1 sequence 1: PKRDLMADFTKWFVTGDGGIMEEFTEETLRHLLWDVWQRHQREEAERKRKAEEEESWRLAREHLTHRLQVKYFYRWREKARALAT
T1 sequence 2: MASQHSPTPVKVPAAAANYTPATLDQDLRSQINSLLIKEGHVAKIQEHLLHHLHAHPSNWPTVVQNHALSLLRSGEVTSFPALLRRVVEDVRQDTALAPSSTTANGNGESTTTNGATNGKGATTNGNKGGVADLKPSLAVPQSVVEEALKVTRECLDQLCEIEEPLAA
T1 sequence 3: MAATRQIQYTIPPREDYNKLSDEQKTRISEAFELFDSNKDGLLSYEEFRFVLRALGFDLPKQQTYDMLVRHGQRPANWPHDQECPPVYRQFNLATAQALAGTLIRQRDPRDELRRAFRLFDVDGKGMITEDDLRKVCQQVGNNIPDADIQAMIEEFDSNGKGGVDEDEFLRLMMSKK

Sequence of GST-tagged ctMlp1^(1797-1960) (Chaetomium thermophilum) (G0SA56 1797-1960): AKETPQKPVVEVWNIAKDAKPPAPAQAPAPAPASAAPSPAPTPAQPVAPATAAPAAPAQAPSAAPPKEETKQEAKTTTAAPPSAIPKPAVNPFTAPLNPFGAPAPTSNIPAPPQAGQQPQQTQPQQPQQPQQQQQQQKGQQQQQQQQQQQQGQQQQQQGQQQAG

ctMex67:Mtr2 complex showed a KD1 [1] of 309 nM, a KD2 [1] of 419 nM and a koff1 [1] of 0.071 s⁻¹. It also gave a koff2 [1] of 0.0088 s⁻¹, a kon1 [1] of 230000 M⁻¹ s⁻¹ and a kon2 [1] of 21000 M⁻¹ s⁻¹. For the same molecule, the KD1 [2] was 238 nM, the KD2 [2] was 264 nM and the koff1 [2] was 0.071 s⁻¹. For the same molecule, the koff2 [2] was 0.0074 s⁻¹, the kon1 [2] was 300000 M⁻¹ s⁻¹ and the kon2 [2] was 28000 M⁻¹ s⁻¹. The KD1 [3] was 39 nM, the KD2 [3] was 148 nM and the koff1 [3] was 0.073 s⁻¹. For the same molecule, the koff2 [3] was 0.0049 s⁻¹, the kon1 [3] was 1.9e+06 M⁻¹ s⁻¹ and the kon2 [3] was 33000 M⁻¹ s⁻¹.

B1: GST-tagged ctSac3N^(1-210) (domain or fragment, Chaetomium thermophilum, UniProt G0SGL4 1-210, looked up)
chain: MMAPANNPFGAPPAQVNNPFASPAPSNQGSSVFGAPAQSTFGAPSSNNPFGASSAKPSGAPAANPFGAPIKNPFGASAQNAQNKPFGAPTAGNGSSLAAANPFGAASGQTSAFGSTPAGSAPQSKGSSRQPSPAGRQNQSGRQQANLVGAPQGPSGKKRTPSPFDTRQRTQAPSKRAQASEESDSDAMSGRKSKGKGFGGLKSQPPAANK
notes: also called GST-Sac3N; GST-Sac3; source: E. coli (general method), captured on an anti-GST antibody-coated CM5 chip
Work on B1 yielded a Kd [4] of 2200 nM, a koff [4] of 0.00052 s⁻¹ and a kon [4] of 235 M⁻¹ s⁻¹.
